The values below come from patent US20260151519A1 (AKTIS ONCOLOGY, published 2026).

Bridges are numbered along the chain shown (N, C = ends). Primed or numbered codes have the meaning given here. Where no end group is shown, it is not given here. The star is where a group is joined. FITC = O=C1OC2(c3ccc(O)cc3Oc3cc(O)ccc32)c2ccc(NC(=S)*)cc21; DOTA = O=C(O)CN1CCN(CC(=O)O)CCN(CC(=O)*)CCN(CC(=O)O)CC1; DTPA = O=C(O)CN(CCN(CC(=O)O)CC(=O)O)CCN(CC(=O)O)CC(=O)*; PEG4″ = 4(ethylene glycol); PEG12′ = not defined here

First the molecules themselves.
T1: Human Nectin-4 (human, UniProt Q96NY8 32-349, limits assumed)
T1 construct: Protein immobilised on the SPR chip; also called target protein
T1 sequence: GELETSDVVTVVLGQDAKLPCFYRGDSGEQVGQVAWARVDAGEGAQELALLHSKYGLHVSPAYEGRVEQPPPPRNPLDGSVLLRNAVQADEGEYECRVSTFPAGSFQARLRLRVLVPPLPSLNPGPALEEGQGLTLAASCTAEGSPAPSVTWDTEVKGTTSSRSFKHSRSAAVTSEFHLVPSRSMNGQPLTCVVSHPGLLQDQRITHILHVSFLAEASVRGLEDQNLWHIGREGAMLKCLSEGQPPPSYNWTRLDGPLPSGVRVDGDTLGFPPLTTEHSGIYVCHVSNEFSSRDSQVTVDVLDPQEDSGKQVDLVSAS

The test deals with T1, Human Nectin-4. Nature of the test: Table 2B (DELFIA or SPR).
In the case of {FITC}-CEYDEEFFAGLKRLRGGDICYYIKKKFDKVPDLCIEEILDKLGC-OH (designed binder, disulfide 1-34, 20-44) [C10], the dissociation constant Kd turned out to be 37.6 nM.
Ac-CEYDEEFFEGLKKLRGGDICYYIKKKFKKVPDLCIEEILDKLGC-OH (designed binder, disulfide 1-34, 20-44) [C30]: the Kd came out at 24.9 nM.
The value for Ac-CEYDEEFFTGLKRLRGGTICYYIKKKFKKVPDLCIEEILDKLGC-OH (designed binder, disulfide 1-34, 20-44) [C41] was 5.6 nM.
Ac-CEYDEEFFTLLKRLRGGDICYYIKKKFKKVPKLCIEEILDKLGC (designed binder, disulfide 1-34, 20-44) [C56] yielded a Kd of 3.88 nM.
In turn, Ac-CEYDEEFFLGLKRLRGGDICYYIKKKFKKVPDLCIEEILKKLGC-OH (designed binder, disulfide 1-34, 20-44) [C64] gave an equilibrium dissociation constant (Kd) of 3.8 nM. The Kd values of the last two molecules are within 1.5-fold of each other.
With Ac-CEYDEEFFAGLKRLRGTDICYYIKKKFDKVPDLCIEEILDKLGC-OH (designed binder, disulfide 1-34, 20-44) [C22] the figure was 12.8 nM; with Ac-CEYDEEFFTGLKRLRGGDICYYIKKKFKKVPELCIEEILKKLGC-OH (designed binder, disulfide 1-34, 20-44) [C65], 2.21 nM; with Ac-CEYDEEFFTDLKRLRGGDICYYIKKKFKKVPKLCIEEILDKLGC-OH (designed binder, disulfide 1-34, 20-44) [C52], 5.24 nM.
The value for Ac-CEYDEEFFAGLHRLRGGDICYYIKKKFPKVPDLCIEEILDKLGC-OH (designed binder, disulfide 1-34, 20-44) [C21] was 49.4 nM; that for Ac-CEYDEEFFEGLKRLRGGDICYYIKKKFKKVPDLCIEEILDKLGC-OH (designed binder, disulfide 1-34, 20-44) [C26] was 5.04 nM; that for Ac-CEYDEEFFDGLKRLRGGDICYYIKKKFKKVPDLCIEEILDKLGC-OH (designed binder, disulfide 1-34, 20-44) [C27] was 9.85 nM.
Consider Ac-CEYDEEFFTALKRLRGGDICYYIKKKFKKVPKLCIEEILDKLGC-OH (designed binder, disulfide 1-34, 20-44) [C57], for which the Kd stood at 0.29 nM. Against the preceding molecule, the Kd is about 34-fold lower.
The value for Ac-CEYDEEFFTGLKRLRGGDICYYIKKKFKKVPKLCIEEILDKLGC-OH (designed binder, disulfide 1-34, 20-44) [C31] was 1.31 nM.
As for Ac-CEYDEEFFAGLKRLRGGDICYYIKKKFPKVPDLCIEEILDKLGC-OH (designed binder, disulfide 1-34, 20-44) [C19], the affinity, expressed as Kd, was 10.8 nM.
Ac-CEYDEEFFAGLHRLRGGDICYYIKKKFDKVPDLCIEEILDKLGC-OH (designed binder, disulfide 1-34, 20-44) [C20]: the affinity, expressed as Kd, was 22.1 nM. Compared with the last molecule, the Kd is about 2-fold higher.
Turning to Ac-CEYDEEFFTGLKRLRGGDICYYIKKKFKKVPDLCIEEILEKLGC-OH (designed binder, disulfide 1-34, 20-44) [C45], the Kd came out at 3.29 nM.
Molecule Ac-CEYDEEFFLGLKRLRGGDICYYIKKKFKKVPDLCIEEILDKLGC-OH (designed binder, disulfide 1-34, 20-44) [C34] gave a Kd of 3.17 nM.
Ac-CEYDEEFFQGLKRLRGGDICYYIKKKFKKVPDLCIEEILDKLGC-OH (designed binder, disulfide 1-34, 20-44) [C33] showed a Kd of 3.47 nM.
With Ac-CEYDEEFFTGLKRLRGGDICYYIKKKFKKVPELCIEEILEKLGC-OH (designed binder, disulfide 1-34, 20-44) [C66] the figure was 2.63 nM.
The value for Ac-CEYDEEFFAGLHRLRGTDICYYIKKKFPKVPDLCIEEILDKLGC-OH (designed binder, disulfide 1-34, 20-44) [C24] was 84.4 nM; that for Ac-CEYDEEFFSGLKRLRGGDICYYIKKKFKKVPDLCIEEILDKLGC-OH (designed binder, disulfide 1-34, 20-44) [C28] was 5.29 nM; that for Ac-CEYDEEFFTTLKRLRGGDICYYIKKKFKKVPKLCIEEILDKLGC-OH (designed binder, disulfide 1-34, 20-44) [C55] was 3.39 nM.
The value for Ac-CEYDEEFFTGLKRLRGGDICYYIKKKFKKVPELCIEEILDKLGC-OH (designed binder, disulfide 1-34, 20-44) [C32] was 3.26 nM.
On to Ac-CEYDEQFFTGLKRLRGGDICYYIKKKFKKVPDLCIEEILDKLGC-OH (designed binder, disulfide 1-34, 20-44) [C49], for which the Kd is 1.93 nM. Against the preceding molecule, the Kd is about 1.7-fold lower.
The value for Ac-CEYDEEFFLGLKRLRGGDICYYIKKKFKKVPDLCIEEILEKLGC-OH (designed binder, disulfide 1-34, 20-44) [C60] was 3.17 nM.
As to Ac-CEYDEEFFKGLKRLRGGDICYYIKKKFKKVPDLCIEEILDKLGC-OH (designed binder, disulfide 1-34, 20-44) [C25], binding was characterised by a dissociation constant (Kd) of 3.75 nM.
The value for Ac-CEYDEEFFNGLKRLRRGDICYYIKKKFDKVPDLCIEEILDKLGC-OH (designed binder, disulfide 1-34, 20-44) [C15] was 12.2 nM; that for Ac-CEYDEEFFNGLHRLRRGDICYYIKKKFKKVPDLCIEEILDKLGC-OH (designed binder, disulfide 1-34, 20-44) [C18] was 38.2 nM; that for Ac-CEYDEEFFTGLKRLRGGDICYYIKKKFKKVPDLCIEEILDKLGC-OH (designed binder, disulfide 1-34, 20-44) [C29] was 3.91 nM.
Molecule Ac-CEYDEEFFNGLKRLRGGDICYYIKKKFKKVPDLCIEEILDKLGC-OH (designed binder, disulfide 1-34, 20-44) [C17] had a Kd of 4.16 nM.
With Ac-CEYDEEFFLGLKRLRGGDICYYIKKKFKKVPKLCIEEILDKLGC-OH (designed binder, disulfide 1-34, 20-44) [C58] the figure was 1.81 nM; with Ac-CEYDEEFFLGLKRLRGGDICYYIKKKFKKVPKLCIEEILKKLGC-OH (designed binder, disulfide 1-34, 20-44) [C63], 1.97 nM.
The value for Ac-CEYDEEFFAGLKRLRRGDICYYIKKKFDKVPDLCIEEILDKLGC (designed binder, disulfide 1-34, 20-44) [C14] was 14.1 nM; that for Ac-CEYDEEFFAGLHRLRGTDICYYIKKKFDKVPDLCIEEILDKLGC-OH (designed binder, disulfide 1-34, 20-44) [C23] was 18.5 nM.
The value for Ac-CEYDEKFFTGLKRLRGGDICYYIKKKFKKVPDLCIEEILDKLGC-OH (designed binder, disulfide 1-34, 20-44) [C46] was 2.28 nM; that for Ac-CEYDEEFFTGLKRLRGGDICYYIKKKFKKVPDLCIEEILKKLGC-OH (designed binder, disulfide 1-34, 20-44) [C44] was 3.14 nM.
As to Ac-CEYDEEFFNGLKRLRGGDICYYIKKKFDKVPDLCIEEILDKLGC-OH (designed binder, disulfide 1-34, 20-44) [C13], the Kd is 6.01 nM.
The value for {DTPA-PEG4″}-CEYDEEFFAGLKRLRGGDICYYIKKKFDKVPDLCIEEILDKLGC-OH (designed binder, disulfide 1-34, 20-44) [C11] was 6.86 nM.
With Ac-CEYDEEFFLGLKRLRGGDICYYIKKKFKKVPELCIEEILKKLGC-OH (designed binder, disulfide 1-34, 20-44) [C67] the figure was 2.64 nM; with Ac-CEYDEEFFLGLKRLRGGDICYYIKKKFKKVPKLCIEEILEKLGC-OH (designed binder, disulfide 1-34, 20-44) [C61], 1.79 nM.
With {DOTA-PEG12′}-CEYDEEFFAGLKRLRGGDICYYIKKKFDKVPDLCIEEILDKLGC-OH (designed binder, disulfide 1-34, 20-44) [C51] the figure was 8.37 nM.

For orientation: Kd means the equilibrium constant for the complex coming apart.
